Experimental data as given in the supplement of paper PMC12042874.
± gives the uncertainty stated by the source.

Test: amyloid nucleation score (Sup35N fusion, yeast selection) (log enrichment); library NNK1; higher = more nucleation; inactive = no reads after selection
Outline: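 Peptides of 20 random codons fused to Sup35N were expressed in psi-negative yeast, induced 24 hours with 100 μM copper sulfate, then grown 7 days at 30°C on medium lacking adenine and uracil. Input and output plasmid inserts were Illumina-sequenced. Nucleation score is the DiMSum log enrichment of output over input reads, centred on the mode score of non-aggregating sequences, excluding sequences with under 100 input reads. Random libraries had three technical output replicates.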
SSNRLSSMQG showed an amyloid nucleation score of 1.09 ± 0.38. FNVCLSKESVNLGRD showed an amyloid nucleation score of 0.486 ± 0.39. For LYFQAFHYQQWCIWFYFYIL, the amyloid nucleation score was 1.42 ± 0.49. Substance SIWKRLYFQVNGL has an amyloid nucleation score of 0.925 ± 0.92. For HCIWKMLNLFSSLRLSIKLI, the amyloid nucleation score was -2.16 ± 2.4. In the case of GAQATFEVHCLERTVWVYR, the amyloid nucleation score is reported as -0.691 ± 1.4. YHNLVLQSICDCSSLADLGW gave an amyloid nucleation score of 6.66 ± 0.059. VDFDPNVLFKWTDMKRSRSR showed an amyloid nucleation score of 1.66 ± 0.48. Substance RGEKHVRVYRVMSV has an amyloid nucleation score of -0.192 ± 0.49. Work on RNLRY yielded an amyloid nucleation score of 0.184 ± 1.1. In the case of IFRFSNFR, the amyloid nucleation score is reported as 5.822 ± 0.054. Work on VLWSCDAMWWVRIKSTYVWN yielded an amyloid nucleation score of 0.495 ± 1.2. For LCFCVKVS, the amyloid nucleation score was “inactive”. For MPCNVGMGWCRVVNWWGLYG, the amyloid nucleation score was 0.604 ± 0.44. DVVFGFLGVGKLIGVDTMRR gave an amyloid nucleation score of -0.725 ± 0.9. For LSFLSSVSDLIKLSSIFYGY, the amyloid nucleation score was -0.264 ± 0.37. VANTCWQMMFLRMLSYFLRV gave an amyloid nucleation score of 0.687 ± 0.44. Work on DSGTLDQYH yielded an amyloid nucleation score of 0.157 ± 0.86. KYFIMCDIILCVVPVSYTGG showed an amyloid nucleation score of 3.87 ± 0.074. In the case of TLLIMLLYKSTILCVQPDLM, the amyloid nucleation score is reported as 0.032 ± 0.6. With RLSHRM the amyloid nucleation score was -0.994 ± 0.54. With VTKVTLMLFLSCWLF the amyloid nucleation score was -0.677 ± 0.47. For IIWIRAVPLMTRNEGVCECG, the amyloid nucleation score was -0.982 ± 1.8. For PFQYADGTFF, the amyloid nucleation score was 4 ± 0.15. With LSPSSMN the amyloid nucleation score was “inactive”. For NSKCSLIQCTGPLVRERRSY, the amyloid nucleation score was 0.058 ± 0.31. For RLSRKISSWLTRYIIAWSWS, the amyloid nucleation score was -0.713 ± 0.61. With SLGVDYDTGSVVYVAGCNCR the amyloid nucleation score was 0.009 ± 0.46. CVFRCVLVKWSVNMVLLLWF showed an amyloid nucleation score of 0.536 ± 0.3. Work on VFRWRNKLRNNLCRGKYYWT yielded an amyloid nucleation score of 2.08 ± 0.43. Substance RIDTFTWSCKCLPPSSIWLL has an amyloid nucleation score of 0.009 ± 0.76. For AIPLSDRR, the amyloid nucleation score was 1.48 ± 0.88. For VAVRTPMSVCSVLLGSGSGL, the amyloid nucleation score was -0.162 ± 1.1. Work on ECAIKG yielded an amyloid nucleation score of 1.38 ± 0.69. Substance NWIVCRPDAGMQPRTNNLIV has an amyloid nucleation score of -0.536 ± 0.58. For CTRFKGFAWTSMLRL, the amyloid nucleation score was 0.21 ± 0.75. For VLGTLSMFYFRAYFRPAWLS, the amyloid nucleation score was -0.278 ± 0.5. RGMIFLHQASCLHRDN showed an amyloid nucleation score of -0.836 ± 0.61. RLLVFQSCKFVRGTSLCLVT gave an amyloid nucleation score of 3.66 ± 0.069. QSGPSAVY gave an amyloid nucleation score of 0.362 ± 0.64. With EKGRFVRLDERLYYLCVVWS the amyloid nucleation score was 0.163 ± 0.66. SAHSDPQMRKNSLTYGNDLI gave an amyloid nucleation score of -0.116 ± 0.42. In the case of MTSAGSAWVYSYFYLGLIRK, the amyloid nucleation score is reported as -0.143 ± 0.53. FGGKHFYVGGRFGLLNMCDF gave an amyloid nucleation score of -0.548 ± 2.1. Work on GKCMYRVCYSEA yielded an amyloid nucleation score of -0.056 ± 0.46. Work on SIPYSRRVF yielded an amyloid nucleation score of 0.103 ± 0.41. Work on FRPSRHNAQPMFHSKPSRAF yielded an amyloid nucleation score of -0.636 ± 1.1. With FKRRKSFAHCRFAGVVRRWW the amyloid nucleation score was -0.581 ± 1.2. PHAHDTWYGYA gave an amyloid nucleation score of -1.13 ± 2.4. LAFNTIYWVIRIESFWLSAA gave an amyloid nucleation score of -0.189 ± 0.36. In the case of VKSGS, the amyloid nucleation score is reported as 0.21 ± 0.24. With NFFVSRLISQPHLGTYYAS the amyloid nucleation score was “inactive”. For VSCRR, the amyloid nucleation score was “inactive”. Substance VKFMMRLDYYCPLSTVQTTA has an amyloid nucleation score of -0.644 ± 0.36. SLNRWGVFLCEVALRLADGR showed an amyloid nucleation score of 0.542 ± 0.85. For TLGTSGTSSV, the amyloid nucleation score was -0.544 ± 0.49. In the case of HIYNDSVRSFWIFQ, the amyloid nucleation score is reported as 6.606 ± 0.05. With RASFIELVTEKRHPSHTPGK the amyloid nucleation score was -0.473 ± 0.39. YCGSYHLGSFGIYSTVEIYC showed an amyloid nucleation score of 1.37 ± 0.9. FFRMMKSLFQMRVRIDCRMG showed an amyloid nucleation score of -0.653 ± 1.4. Substance DFYLT has an amyloid nucleation score of -0.257 ± 1.4. SGIVLTG gave an amyloid nucleation score of -1.06 ± 2.1. In the case of LYRSLLN, the amyloid nucleation score is reported as -0.23 ± 1.1. In the case of RNYPTRPYRGVINHLGFCRV, the amyloid nucleation score is reported as -1.06 ± 0.57. For GLRLNITNSRGRPRETWRGR, the amyloid nucleation score was 2.33 ± 0.24. IDKGLHALLSTLLSINVSFC showed an amyloid nucleation score of 2.95 ± 0.094. In the case of LRYIMPDND, the amyloid nucleation score is reported as -1.09 ± 1.5. GIHNFEGGMTLWLLLFSQRS showed an amyloid nucleation score of 0.24 ± 1.2. Work on IIQRAM yielded an amyloid nucleation score of 0.09 ± 0.7. VATPSSCVDSQAKTRMTGTL gave an amyloid nucleation score of -0.112 ± 0.44. HSTCLPNTIQTLRRRALSCR showed an amyloid nucleation score of -1.22 ± 1.9. Work on EGRSWW yielded an amyloid nucleation score of -0.691 ± 1.4. For FNVAAVVGWMKRLIDRSRNT, the amyloid nucleation score was 1.3 ± 0.88. For KVNTLCEHSSIHRPVVGNGG, the amyloid nucleation score was 0.082 ± 0.77. With MYMGAPSIVVIVMLQNMKFV the amyloid nucleation score was 2.34 ± 0.32. Work on CDSYELSQTAQRNNSTLRQS yielded an amyloid nucleation score of -0.359 ± 1.9. In the case of HDICTLWILSAL, the amyloid nucleation score is reported as 0.602 ± 0.78. LLRVVKHCLCWNRYNDSDAG gave an amyloid nucleation score of 1.05 ± 0.34. For FIRFTICALTSKVDFI, the amyloid nucleation score was 0.811 ± 0.74. In the case of SQNVPDCVLKTLRFDVPCCR, the amyloid nucleation score is reported as 1.14 ± 0.4. ADNFLFWHVIEYKENLDHAR showed an amyloid nucleation score of -1.32 ± 1.1. Substance VRNHVYGLCVSWTAGDKCNR has an amyloid nucleation score of 5.03 ± 0.087. In the case of VDSVLIWIMFAAMGSKCPG, the amyloid nucleation score is reported as 1.77 ± 0.23. VSVGR gave an amyloid nucleation score of -0.153 ± 1.4. For KEKWRMQICAPGKS, the amyloid nucleation score was -1.24 ± 0.81. LDLMVVCFKGIRGFEKMIGG showed an amyloid nucleation score of 1.5 ± 0.31. In the case of WISFYSPCMGRAISLSVVDV, the amyloid nucleation score is reported as 0.68 ± 0.54.
